From the Immune Epitope Database (IEDB)

How the values were obtained:
[1] = biological target: HLA-B*15:17; assay: IEDB peptide-MHC binding, purified MHC/competitive/fluorescence; filed as Kd, often an IC50 or EC50 that approximates it; ≥ and ≤ were set here for values at or beyond the usual limits of such assays
[2] = biological target: HLA-A*26:01; assay: as above
[3] = biological target: HLA-B*18:01; assay: as above
[4] = biological target: HLA-B*15:01; assay: as above
[5] = biological target: HLA-A*69:01; assay: as above
[6] = biological target: HLA-B*27:03; assay: as above
[7] = biological target: HLA-B*39:01; assay: as above
[8] = biological target: HLA-B*57:01; assay: as above
[9] = biological target: HLA-B*51:01; assay: as above
[10] = biological target: HLA-B*07:02; assay: IEDB peptide-MHC binding, purified MHC/direct/fluorescence; filed as Kd, often an IC50 or EC50 that approximates it; ≥ and ≤ were set here for values at or beyond the usual limits of such assays
[11] = biological target: HLA-A*03:01; assay: as above
[12] = biological target: HLA-C*15:02; assay: as above; details: source organism: Four Corners hantavirus
[13] = biological target: HLA-A*02:12; assay: as above; details: source organism: Limestone Canyon virus
[14] = biological target: HLA-A*02:16; assay: as above; details: source organism: Limestone Canyon virus
[15] = biological target: HLA-A*29:02; assay: as above; details: source organism: Limestone Canyon virus
[16] = biological target: HLA-A*02:19; assay: as above; details: source organism: Limestone Canyon virus
[17] = biological target: HLA-A*68:02; assay: IEDB peptide-MHC binding, purified MHC/competitive/fluorescence; filed as Kd, often an IC50 or EC50 that approximates it; ≥ and ≤ were set here for values at or beyond the usual limits of such assays; details: source organism: Pan troglodytes
[18] = biological target: HLA-B*46:01; assay: as above; details: source organism: Pan troglodytes
[19] = biological target: HLA-A*03:01; assay: as above; details: source organism: Pan troglodytes
[20] = biological target: HLA-A*02:01; assay: as above
[21] = biological target: HLA-A*02:06; assay: as above; details: source organism: Orthomarburgvirus marburgense
[22] = biological target: HLA-A*11:01; assay: IEDB peptide-MHC binding, purified MHC/direct/fluorescence; filed as Kd, often an IC50 or EC50 that approximates it; ≥ and ≤ were set here for values at or beyond the usual limits of such assays
[23] = biological target: HLA-B*15:17; assay: as above; details: source organism: Marburg virus - Musoke, Kenya, 1980
[24] = biological target: HLA-A*26:01; assay: as above
[25] = biological target: HLA-A*68:02; assay: as above
[26] = biological target: HLA-A*31:01; assay: as above
[27] = biological target: HLA-B*58:01; assay: as above
[28] = biological target: HLA-B*40:01; assay: as above
[29] = biological target: HLA-B*18:01; assay: as above
[30] = biological target: HLA-A*01:01; assay: as above
[31] = biological target: HLA-A*69:01; assay: as above
[32] = biological target: HLA-B*15:09; assay: as above; details: source organism: Ravn virus - Ravn, Kenya, 1987
[33] = biological target: HLA-B*08:01; assay: as above
[34] = biological target: HLA-B*48:01; assay: as above; details: source organism: Marburg virus - Musoke, Kenya, 1980
[35] = biological target: HLA-B*57:01; assay: as above
[36] = biological target: HLA-B*27:05; assay: as above
[37] = biological target: HLA-B*15:01; assay: as above; details: source organism: Salmonella enterica subsp. enterica serovar Typhi
[38] = biological target: HLA-B*35:01; assay: as above; details: source organism: Salmonella enterica subsp. enterica serovar Typhi
[39] = biological target: HLA-A*24:03; assay: as above; details: source organism: Salmonella enterica subsp. enterica serovar Typhi
[40] = biological target: HLA-B*44:02; assay: as above; details: source organism: Salmonella enterica subsp. enterica serovar Typhi
[41] = biological target: HLA-A*02:01; assay: as above
[42] = biological target: HLA-B*07:02; assay: IEDB peptide-MHC binding, purified MHC/competitive/fluorescence; filed as Kd, often an IC50 or EC50 that approximates it; ≥ and ≤ were set here for values at or beyond the usual limits of such assays; details: source organism: Francisella tularensis subsp. tularensis FSC198
[43] = biological target: HLA-A*30:01; assay: as above; details: source organism: Francisella tularensis subsp. tularensis FSC198
[44] = biological target: HLA-A*02:03; assay: as above; details: source organism: Francisella tularensis subsp. tularensis FSC198
[45] = biological target: HLA-A*26:02; assay: as above; details: source organism: Francisella tularensis subsp. tularensis FSC198
[46] = biological target: HLA-B*08:03; assay: IEDB peptide-MHC binding, purified MHC/direct/fluorescence; filed as Kd, often an IC50 or EC50 that approximates it; ≥ and ≤ were set here for values at or beyond the usual limits of such assays; details: source organism: Francisella tularensis subsp. tularensis FSC033
[47] = source organism: Four Corners hantavirus
[48] = source organism: Pan troglodytes
[49] = source organism: Marburg virus - Musoke, Kenya, 1980
[50] = source organism: Ravn virus - Ravn, Kenya, 1987
[51] = source organism: Salmonella enterica subsp. enterica serovar Typhi
[52] = source organism: Francisella tularensis subsp. holarctica LVS

Q: For KARNIISPV, which Kd [1, 47] is on record?
A: Its Kd is ≥ 20 µM.

Q: What about the Kd [2, 47] of the same sequence?
A: Its Kd is ≥ 20 µM.

Q: What about the Kd [3, 47] of the same sequence?
A: The Kd was ≥ 20 µM.

Q: And the Kd [4, 47]?
A: The Kd was ≥ 20 µM.

Q: And the Kd [5, 47]?
A: The Kd was ≥ 20 µM.

Q: And the Kd [6, 47]?
A: The Kd was ≥ 20 µM.

Q: And the Kd [7, 47]?
A: Its Kd is ≥ 20 µM.

Q: And the Kd [8, 47]?
A: The Kd was ≥ 20 µM.

Q: What about the Kd [9, 47] of the same sequence?
A: The Kd was ≥ 20 µM.

Q: What about the Kd ([10]; source organism: Hantavirus Monongahela-3) of the same sequence?
A: Its Kd is 0.107 µM.

Q: What about the Kd ([11]; source organism: Limestone Canyon virus) of the same sequence?
A: The Kd was ≥ 20 µM.

Q: And the Kd [12]?
A: The Kd was 0.088 µM.

Q: What about the Kd [13] of the same sequence?
A: The Kd was ≥ 20 µM.

Q: And the Kd [14]?
A: Its Kd is ≥ 20 µM.

Q: And the Kd [15]?
A: The Kd was ≥ 20 µM.

Q: And the Kd [16]?
A: Its Kd is ≥ 20 µM.

Q: FLFDRLTNG was tested. Which Kd [1, 48] did it give?
A: The Kd was ≥ 20 µM.

Q: What about the Kd [2, 48] of the same sequence?
A: Its Kd is ≥ 20 µM.

Q: And the Kd [17]?
A: The Kd was ≥ 20 µM.

Q: And the Kd [18]?
A: Its Kd is ≥ 20 µM.

Q: What about the Kd [19] of the same sequence?
A: The Kd was ≥ 20 µM.

Q: And the Kd [3, 48]?
A: Its Kd is ≥ 20 µM.

Q: What about the Kd [4, 48] of the same sequence?
A: Its Kd is ≥ 20 µM.

Q: What about the Kd [5, 48] of the same sequence?
A: Its Kd is ≥ 20 µM.

Q: What about the Kd [6, 48] of the same sequence?
A: Its Kd is ≥ 20 µM.

Q: What about the Kd [7, 48] of the same sequence?
A: Its Kd is ≥ 20 µM.

Q: What about the Kd [8, 48] of the same sequence?
A: Its Kd is ≥ 20 µM.

Q: And the Kd [9, 48]?
A: Its Kd is ≥ 20 µM.

Q: What about the Kd [20, 48] of the same sequence?
A: The Kd was 0.0015 µM.

Q: With GEGSGARLL as the sequence, how does the Kd ([20]; source organism: Orthomarburgvirus marburgense) read?
A: The Kd was 4.69 µM.

Q: And the Kd [21]?
A: The Kd was 1.14 µM.

Q: What about the Kd [10, 49] of the same sequence?
A: The Kd was ≥ 20 µM.

Q: And the Kd [22, 49]?
A: Its Kd is ≥ 20 µM.

Q: And the Kd [23]?
A: Its Kd is ≥ 20 µM.

Q: And the Kd [24, 50]?
A: Its Kd is ≥ 20 µM.

Q: And the Kd [25, 49]?
A: The Kd was ≥ 20 µM.

Q: And the Kd [26, 49]?
A: The Kd was ≥ 20 µM.

Q: And the Kd [27, 49]?
A: Its Kd is ≥ 20 µM.

Q: And the Kd [28, 49]?
A: The Kd was 0.279 µM.

Q: What about the Kd [29, 49] of the same sequence?
A: Its Kd is ≥ 20 µM.

Q: And the Kd [30, 49]?
A: The Kd was ≥ 20 µM.

Q: And the Kd [31, 49]?
A: The Kd was ≥ 20 µM.

Q: And the Kd [32]?
A: Its Kd is ≥ 20 µM.

Q: And the Kd [33, 50]?
A: Its Kd is ≥ 20 µM.

Q: And the Kd [34]?
A: Its Kd is ≥ 20 µM.

Q: What about the Kd [35, 49] of the same sequence?
A: The Kd was ≥ 20 µM.

Q: What about the Kd [36, 49] of the same sequence?
A: Its Kd is ≥ 20 µM.

Q: For LPLIVDTAA, which Kd [10, 51] is on record?
A: Its Kd is 5.75 µM.

Q: What about the Kd [22, 51] of the same sequence?
A: The Kd was ≥ 20 µM.

Q: What about the Kd [24, 51] of the same sequence?
A: Its Kd is ≥ 20 µM.

Q: And the Kd [26, 51]?
A: Its Kd is ≥ 20 µM.

Q: And the Kd [11, 51]?
A: The Kd was ≥ 20 µM.

Q: And the Kd [27, 51]?
A: The Kd was ≥ 20 µM.

Q: What about the Kd [28, 51] of the same sequence?
A: Its Kd is ≥ 20 µM.

Q: What about the Kd [37] of the same sequence?
A: Its Kd is ≥ 20 µM.

Q: What about the Kd [30, 51] of the same sequence?
A: Its Kd is ≥ 20 µM.

Q: And the Kd [31, 51]?
A: Its Kd is ≥ 20 µM.

Q: And the Kd [33, 51]?
A: The Kd was 11.2 µM.

Q: And the Kd [38]?
A: Its Kd is 0.00636 µM.

Q: And the Kd [39]?
A: Its Kd is ≥ 20 µM.

Q: And the Kd [40]?
A: The Kd was ≥ 20 µM.

Q: And the Kd [41, 51]?
A: The Kd was ≥ 20 µM.

Q: And the Kd [36, 51]?
A: Its Kd is ≥ 20 µM.

Q: EFKRRLKDL was tested. Which Kd [42] did it give?
A: Its Kd is ≥ 20 µM.

Q: What about the Kd ([4]; source organism: Francisella tularensis subsp. tularensis FSC198) of the same sequence?
A: Its Kd is ≥ 20 µM.

Q: What about the Kd [43] of the same sequence?
A: Its Kd is ≥ 20 µM.

Q: What about the Kd [44] of the same sequence?
A: The Kd was ≥ 20 µM.

Q: What about the Kd [45] of the same sequence?
A: Its Kd is ≥ 20 µM.

Q: What about the Kd [22, 52] of the same sequence?
A: The Kd was ≥ 20 µM.

Q: What about the Kd ([24]; source organism: Francisella tularensis subsp. tularensis FSC033) of the same sequence?
A: Its Kd is ≥ 20 µM.

Q: What about the Kd [25, 52] of the same sequence?
A: The Kd was ≥ 20 µM.

Q: And the Kd [26, 52]?
A: The Kd was ≥ 20 µM.

Q: What about the Kd [27, 52] of the same sequence?
A: The Kd was ≥ 20 µM.

Q: What about the Kd [29, 52] of the same sequence?
A: Its Kd is ≥ 20 µM.

Q: And the Kd [30, 52]?
A: Its Kd is ≥ 20 µM.

Q: What about the Kd [31, 52] of the same sequence?
A: Its Kd is ≥ 20 µM.

Q: What about the Kd [33, 52] of the same sequence?
A: Its Kd is 0.0523 µM.

Q: And the Kd [46]?
A: The Kd was ≥ 20 µM.

Q: What about the Kd [35, 52] of the same sequence?
A: Its Kd is ≥ 20 µM.

Q: And the Kd [41, 52]?
A: Its Kd is ≥ 20 µM.
